Assay results reported in publication PMC7949025, “Biophysical characterization of the ETV6 PNT domain polymerization interfaces” (The Journal of Biological Chemistry, 2021).
Positions count from the first letter of the chain named. Names and notes keep the numbering of the source.

T1: biotinylated A93D-PNT domain (ETV6 residues 43-135, A93D, with Avitag) (human, UniProt P41212 43-135, A93D, biotin on the Avitag (~50 to 95% biotinylated))
T1 construct: ETV6, human, residues 43-135; made from the V112E construct by introducing A93D and E112V; also called biotinylated A93D-PNT domain ligand; A93D-PNT domain ligand; source: E. coli BL21 (λDE3) co-transformed with pET21a-BirA, purified (Ni-NTA, thrombin cleavage); not shown: His6, N-terminal, cleaved; Avitag, N-terminal, kept
T1 sequence (looked up): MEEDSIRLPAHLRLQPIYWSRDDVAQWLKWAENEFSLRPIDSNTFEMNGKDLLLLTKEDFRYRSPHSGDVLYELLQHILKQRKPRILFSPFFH

B1: N85A-V112E-PNT domain (domain or fragment, human, UniProt P41212 40-125, looked up)
chain: ALRMEEDSIRLPAHLRLQPIYWSRDDVAQWLKWAENEFSLRPIDSATFEMNGKALLLLTKEDFRYRSPHSGDELYELLQHILKQRK
notes: ETV6 PNT domain, human; source: E. coli BL21 (λDE3), purified (Ni-NTA, thrombin cleavage); not shown: His6, N-terminal, cleaved
B2: T98A-V112E-PNT domain (domain or fragment, human, UniProt P41212 40-125, looked up)
chain: B1 chain with A46N, T59A
notes: as for B1
B3: R105A-V112E-PNT domain (domain or fragment, human, UniProt P41212 40-125, looked up)
chain: B1 chain with A46N, R66A
notes: as for B1
B4: Y104A-V112E-PNT domain (domain or fragment, human, UniProt P41212 40-125, looked up)
chain: B1 chain with A46N, Y65A
notes: as for B1
B5: N90A-V112E-PNT domain (domain or fragment, human, UniProt P41212 40-125, looked up)
chain: B1 chain with A46N, N51A
notes: ETV6 PNT domain, human; gene purchased commercially (Biomatik); source: E. coli BL21 (λDE3), purified (Ni-NTA, thrombin cleavage); not shown: His6, N-terminal, cleaved
B6: R63A-V112E-PNT domain (domain or fragment, human, UniProt P41212 40-125, looked up)
chain: B1 chain with R24A, A46N
notes: as for B1

target: T1, biotinylated A93D-PNT domain (ETV6 …); assay: SPR; biotinylated A93D-PNT domain ligand captured on streptavidin Sensor Chip SA, PNT domain analytes flowed; Biacore X100, 25 °C, HBS-EP+ (10 mM HEPES, 150 mM NaCl, 3 mM EDTA, 0.05% v/v Tween-20, pH 7.4); analyte 0.2-60 nM, re-run at 20-6000 nM if KD > 60 nM; conditions: both partners purified
Outline: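 In a Biacore X100 at 25 °C, a streptavidin Sensor Chip SA captured biotinylated ETV6 PNT domain (residues 43-135, Avitag) diluted to 50 μg/ml in HBS-EP+, and PNT domain analytes were injected at 0.2-60 nM, or at 20-6000 nM when binding was weaker. Rate and equilibrium dissociation constants came from the Biacore kinetics/affinity software wizard.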

B1 and B2 are within 1.5-fold of each other in Kd: 9.9 nM for the first, 8.8 nM for the second.

First: B3
Second: B4
The Kd of the first is 110-fold higher: 2340 nM for the first, 21 nM for the second.

First: B5
Second: B6
The Kd of the first is 32-fold higher: 480 nM for the first, 15 nM for the second.

First: B1
Second: B2
The koff of the first is 1.6-fold lower: 0.0034 s⁻¹ for the first, 0.0054 s⁻¹ for the second.

Going from B3 to B4, the koff rises from 0.0054 s⁻¹ to 0.015 s⁻¹ (2.8-fold).

First: B5
Second: B6
The koff of the first is 6.9-fold higher: 0.037 s⁻¹ for the first, 0.0054 s⁻¹ for the second.

First: B1
Second: B2
The kon of the first is 1.8-fold lower: 350000 M⁻¹ s⁻¹ for the first, 620000 M⁻¹ s⁻¹ for the second.

Compared with B3, B4 is 320-fold higher in kon: 2300 M⁻¹ s⁻¹ for the first, 730000 M⁻¹ s⁻¹ for the second.

Compared with B5, B6 is 4.6-fold higher in kon: 78000 M⁻¹ s⁻¹ for the first, 360000 M⁻¹ s⁻¹ for the second.
